B1: S564-138 (antibody, V domains shown)
VH: QVLLVQSGAEVKKPGASVKVSCKASGYTFTGYYLHWVRQAPGQGLEWMGWINPISGGTNYAQNFQDRVTMTRDTSIITAYMELSRLRSDDTAVYYCARLAYYYDSSAYRGAFDIWGQGTMVTVSS
VL: QSALTQPASVSGSPGQSITISCTGTSSDVGGYNYVSWYQQHPGKAPKLMIYEVSNRPSGVSDRFSGSKSGNTASLTISGLQAEDEADYYCSSYTSSSTYVFGTGTKVTVL
B2: S144-1406 (antibody, V domains shown)
VH: QVQLVQSGAEVKKPGASVKVSCKASGYTFTTYAMHWVRQAPGQRLEWMGWINAGNGNTKYSQNFQGRVTITRDTSASTAYMELSSLRSEDTAVYYCASLVGGDSSSWYDYMDVWGKGTTVTVSS
VL: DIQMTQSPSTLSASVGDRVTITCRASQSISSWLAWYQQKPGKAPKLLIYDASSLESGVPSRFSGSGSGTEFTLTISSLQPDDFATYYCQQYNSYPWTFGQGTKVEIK
B3: S564-152 (antibody, V domains shown)
VH: QVQLVESGGGVVQPGRSLRLSCAASGFTFSYYGMHWVRQAPGKGLEWVAVIWYDGSNKHYADSVKGRFTISRDNSKNTLYLQMNSLRAEDTAVYYCAKNAAPYCSGGSCYGTYFDYWGQGTLVTVSS
VL: DIQMTQSPSSLSASVGDRVTITCQASQDINNYLNWYQQKPGKAPKLLIYDASNLETGVPSRFSGSGSGTDFTFTISSLQPEDIATYYCQQYDNVPPHTFGQGTKLEIK
B4: S564-14 (antibody, V domains shown)
VH: EVQLVESGGGLVQPGGSLRLSCAASGLTFSSYWMSWARQAPGKGLEWVANIKKDGSEKYYVDSVKGRFTISRDNAKNSLYLQMNSLRVEDTAVYYCASEPPHYGGNSGAEYFQHWGQGTLVTVSS
VL: SYVLTQPPSVSVAPGKTARITCGGNNIGSKSVHWYQQRPGQAPVLVIYYDSDRPSGIPERFSGSNSGNTATLTISRVEAGDEADYYCQVWDSSSDHHYVFGTGTKVTVL
B5: S564-287 (antibody, V domains shown)
VH: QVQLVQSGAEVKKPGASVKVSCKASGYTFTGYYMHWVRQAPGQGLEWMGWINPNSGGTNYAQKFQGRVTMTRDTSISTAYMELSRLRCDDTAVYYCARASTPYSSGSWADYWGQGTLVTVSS
VL: QSALTQPASVSGSPGQSITISCTGTSSDVGGYNYVSWYQQHPGKAPKLMIYDVSNRPSGVSNRFSGSKSGNTASLTISGLQAEDEADYYCSSYASSSTWVFGGGTKLTVL
B6: S144-1299 (antibody, V domains shown)
VH: QVQLQESGPGLVKPSETLSLTCTVSGGSISSYYWSWIRQPPGKGLEWIGYINYRGITNYNPSLKSRVTISVDMSKNQFSLKLSSVTAADTAVYSCARLAVASRGTVDYWGQGTLVTVSS
VL: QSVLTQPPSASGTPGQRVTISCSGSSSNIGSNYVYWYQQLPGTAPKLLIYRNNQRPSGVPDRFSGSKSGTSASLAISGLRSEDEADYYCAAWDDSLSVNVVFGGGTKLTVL
B7: S24-1378 (antibody, V domains shown)
VH: EVQLVESGGGLVQPGGSLRLSCAASGFTVSSNYMSWVRQAPGKGLEWVSVIYSGGSTYYADSVKGRFTISRHNSKNTLYLQMNSLRAEDTAVYYCAREGYCTNGVCYRHAFDIWGQGTMVTVSS
VL: QTVVTQEPSFSVSPGGTVTLTCGLSSGSVSTSYYPSWYQQTPGQAPRTLIYSTNTRSSGVPDRFSGSILGNKAALTITGAQADDESDYYCVLYMGSGISVFGGGTKLTVL
B8: S24-278 (antibody, V domains shown)
VH: QVQLVQSGAEVKKPGASVKVSCKASGYTFTGYYMHWVRQAPGQGLEWMGWINPNSGDTNYAQKFQGWVTMTRDTSLSTAYMELSRLKSDDTAVYYCARVGVGEYSGRHYYYYGMDVWGQGTTVTVSS
VL: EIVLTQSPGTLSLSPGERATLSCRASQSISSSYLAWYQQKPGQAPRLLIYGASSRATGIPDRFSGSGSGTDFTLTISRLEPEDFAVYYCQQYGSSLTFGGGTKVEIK
B9: S144-69 (antibody, V domains shown)
VH: EVQLVQSGAEVKKPGESLKISCKGSGYSFTSYWIGWVRQMPGKGLEWMGIIYPGDSDTRYSPSFQGQVTISADKSITTAYLQWSSLKASDTAMYYCARTQTTNWFDSWGQGTLVTVSS
VL: DIQMTQSPSTLSVSVGDRVTITCRASQSVSSWLAWYQQKPGKAPKLLIYDASSLESGVPSRFSGSGSGTEFTLTISSLQPDDFATYYCQQYNSFYTFGQGTKLEIK
B10: S144-67 (antibody, V domains shown)
VH: EVQLVQSGAEVKKPGESLKISCKGSGYSFTTYWIAWVRQMPGKGLEWVGIIYPDDSDTRYSPSFQGQVTISADKSIGTAYLQWSSLKASDTAMYYCARGQYYDFWSGAGGVDVWGQGTTVTVSS
VL: QSVLTQPPSVSGAPGQRVTISCTGSRSNIGAGYDVQWYQQVPGTAPKLLISGNSNRPSGVPDRFSGSKSGTSASLAITGLQAEDEADYYCQSYDSSLSGLRVFGGGTKLTVL
B11: S144-466 (antibody, V domains shown)
VH: EVQLVQSGAEVKKPGESLKISCKGSGYRFTRYWIGWVRQMPGKGLEWMGIIYLGDSETRYSPSFQGQVTISADNSISTAYLQWSSLKASDTAMYYCARSSNWNYGDYWGQGTLVTVSS
VL: DIQMTQSPSTLSASVGDRVTITCRASQSITSWLAWYQQKSGKAPKLLIYDASSLESGVPSRFSGSGSGTEFTLTISSLQPDDFATYYCQQYNSYPWTFGQGTKVEIK
B12: S144-1079 (antibody, V domains shown)
VH: QVQLVQSGAEVKKPGSSVKVSCKASGDTFGSYSITWVRQAPGQGLEWMGRIIPVLGIANYAQKFQGRVTITADKSTSTAYMELSSLRSEDTAVYYCAGGGCSGGNCYSWYNWFDPWGQGSLVTVSS
VL: EIVLTQSPGTLSLSPGERATLSCRASQSVSSNYLAWYQQKPGQAPRLLIYGASSRATGIPERFSGSGSGTDFTLTISRLEPEDFAVYYCQQYGRSPYTFGQGTKLEIK
B13: S144-509 (antibody, V domains shown)
VH: EVQLVQSGAEVKKPGESLKISCKGSAYTFTTYWIGWVRQMPGKGLEWMGIIYPGDSDTRYSPSFQGQVTISADKSISTAYLQWSSLKASDTAMYYCARLLLVAGPFDYWGQGTLVTVSS
VL: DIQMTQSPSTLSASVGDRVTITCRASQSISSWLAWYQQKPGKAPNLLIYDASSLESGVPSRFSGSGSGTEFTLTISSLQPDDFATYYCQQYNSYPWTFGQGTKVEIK
B14: S144-741 (antibody, V domains shown)
VH: QVHLVQSGAEVKKPGASVKVSCKASGYTFTGYYMNWVRQAPGQGLEWMGRINPNSGGTNYAQKFQGRVTMTRDTSISTAYMELSRLRSDDAAVYYCARAERYSSSWYNLYYWGQGTLVTVSS
VL: not shown
B15: S144-175 (antibody, V domains shown)
VH: QVQLVQSGAEVKKPGASVKVSCKASGYTFTGYYMHWVRQAPGQGLEWMGRINPNSGGTNFAQRFQGRVSMTRDTSISTAYMELSSLRSDDTAVYYCARGAKFEHLPFDIWGQGTMVTVSS
VL: QSMLTQPPSASGTPGQRVTISCSGSSSNIGSNYVYWYQQLPGTAPKLLIYRNNQRPSGVPDRFSGSKSGTSASLAISGLRSEDEADYYCAAWDDRRWVFGGGTKLTVL
B16: S144-588 (antibody, V domains shown)
VH: QLQLQESGPGLVKPSETLSLTCTVSGGSISSSSYYWGWIRQPPGKGLEWIGSIYYSGSTYYNPSLKSRFTISVDTSKNQFSLKLSSVTAADTAVYYCAAYQRKLGYCRGNSCFSCFDPWGQGTLVTVSS
VL: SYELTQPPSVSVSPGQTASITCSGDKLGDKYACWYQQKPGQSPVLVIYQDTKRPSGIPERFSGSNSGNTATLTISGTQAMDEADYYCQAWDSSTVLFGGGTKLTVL
B17: S144-208 (antibody, V domains shown)
VH: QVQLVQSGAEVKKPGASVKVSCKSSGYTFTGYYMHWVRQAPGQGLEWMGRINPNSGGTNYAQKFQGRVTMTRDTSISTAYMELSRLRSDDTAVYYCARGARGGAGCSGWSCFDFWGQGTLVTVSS
VL: QSALTQPRSVSGSPGQSVTISCTGTSSDVGGYKYVSWYQQHPGKAPKLMIYDVSKRPSGVPDRFSGSKSGNTASLTISGLQAEDEGDYYCCSYAGTYSLVFGGGTKVTV
B18: S144-843 (antibody, V domains shown)
VH: QVQLVESGGGVVQPGGSVRLSCAASGFDFTNNGMYWVRQAPGKGLEWVAFIRYDGNKQDYADSVKGRFTISRDNSKNTLYLQMSSLRPEDTAVYYCAKGVYTENYGWGQGTLVTVSS
VL: EIVLTQSPGTLSLSPGERATLSCRASQTVTSRYLAWYQQKPGQAPRLLIYGASTRATGIPDRFSGSGSGTDFTLTISRLEPEDFAVYYCQQYGNSPPYTFGQGTKLEIK

In the first test the target is SARS-CoV-2 spike receptor binding domain (SARS-CoV-2, UniProt P0DTC2 319-541).
B1: the binding result is on record as “binds”.

On to B2, for which the binding result is given as “binds”.

With B3, the binding result is “binds”.

Consider B4, for which the binding result is “binds”.

A further test has as its target T1, SARS-CoV-2 open reading frame 8 protein (SARS-CoV-2, UniProt P0DTC8 16-121).
T1 construct: domain: Ig-like domain; also called ORF8
T1 sequence (P0DTC8 16-121, tags left off): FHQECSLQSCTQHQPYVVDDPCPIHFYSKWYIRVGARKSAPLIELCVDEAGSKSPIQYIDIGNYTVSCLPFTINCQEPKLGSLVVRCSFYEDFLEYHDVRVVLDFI
B5: the binding result is recorded as “binds”.

For B6, the binding result is reported as “binds”.

The target in a further test is T2, SARS-CoV-2 open reading frame 8 (ORF8) protein (SARS-CoV-2, UniProt P0DTC8 16-121).
T2 construct: domain: Ig-like domains; also called ORFS [sic]
T2 sequence (P0DTC8 16-121, tags left off): as above
With B7, the binding result was “binds”.

As for B8, the binding result was “binds”.

The target in a further test is SARS-CoV-2 spike receptor binding domain (SARS-CoV-2, UniProt P0DTC2 319-541). This is another data set of the same source.
Take B9: the binding result is listed as “binds”.

For the molecule B10, the binding result is listed as “binds”.

Consider B11, for which the binding result was “binds”.

For B12, the binding result is “binds”.

Take B13: the binding result is listed as “binds”.

A further test addresses T3, SARS-CoV-2 open reading frame 8 protein (SARS-CoV-2, UniProt P0DTC8 16-121).
T3 construct: domain: Ig-like domain; also called ORF8
T3 sequence (P0DTC8 16-121, tags left off): as above
On to B14, for which the binding result was “binds”.

Take B15: the binding result is given as “binds”.

Take B16: the binding result is reported as “binds”.

With B17, the binding result is given as “binds”.

Take B18: the binding result is listed as “binds”.

The values above are taken from patent US20240002477A1 (UNIVERSITY OF CHICAGO, published 2024).
